From PMC9239148 (2022)

What was measured:
Test in all cases: SPR
[1] = biological target: T1, Recombinant SERPINE1 protein (plasminogen activator inhibitor 1) (human, UniProt P05121 24-402)
[2] = biological target: T1, Recombinant SERPINE1 protein …; remark: listed apart in the source
[3] = biological target: T2, Recombinant SERPINC1 protein (antithrombin III) (human, UniProt P01008 33-464)
[4] = biological target: T3, Recombinant SERPINA1 protein (alpha-1 antitrypsin) (human, UniProt P01009 25-418)
[5] = biological target: T2, Recombinant SERPINC1 protein …; remark: listed apart in the source
[6] = biological target: T3, Recombinant SERPINA1 protein (alpha-1 …); remark: listed apart in the source

T1 sequence (P05121 24-402): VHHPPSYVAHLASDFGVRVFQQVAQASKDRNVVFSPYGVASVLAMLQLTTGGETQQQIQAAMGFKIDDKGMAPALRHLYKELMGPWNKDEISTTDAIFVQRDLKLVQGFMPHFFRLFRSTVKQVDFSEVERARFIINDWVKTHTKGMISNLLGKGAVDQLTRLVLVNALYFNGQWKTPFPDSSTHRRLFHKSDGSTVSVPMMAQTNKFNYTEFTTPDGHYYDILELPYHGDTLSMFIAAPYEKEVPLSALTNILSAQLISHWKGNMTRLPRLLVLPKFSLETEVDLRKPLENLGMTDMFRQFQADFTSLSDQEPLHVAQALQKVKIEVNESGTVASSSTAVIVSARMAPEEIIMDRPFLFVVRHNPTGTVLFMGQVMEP
T2 sequence (P01008 33-464): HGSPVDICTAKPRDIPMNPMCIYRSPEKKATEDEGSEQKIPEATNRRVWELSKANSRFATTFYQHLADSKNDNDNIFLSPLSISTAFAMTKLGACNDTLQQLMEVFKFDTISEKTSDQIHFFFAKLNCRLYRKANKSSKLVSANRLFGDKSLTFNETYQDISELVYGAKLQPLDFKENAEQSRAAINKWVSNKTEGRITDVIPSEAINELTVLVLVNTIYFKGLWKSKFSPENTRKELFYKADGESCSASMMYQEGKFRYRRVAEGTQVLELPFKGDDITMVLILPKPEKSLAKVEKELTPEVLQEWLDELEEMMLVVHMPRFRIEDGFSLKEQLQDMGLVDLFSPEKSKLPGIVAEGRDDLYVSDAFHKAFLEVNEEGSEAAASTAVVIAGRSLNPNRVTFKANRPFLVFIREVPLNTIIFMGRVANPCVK
T3 sequence (P01009 25-418): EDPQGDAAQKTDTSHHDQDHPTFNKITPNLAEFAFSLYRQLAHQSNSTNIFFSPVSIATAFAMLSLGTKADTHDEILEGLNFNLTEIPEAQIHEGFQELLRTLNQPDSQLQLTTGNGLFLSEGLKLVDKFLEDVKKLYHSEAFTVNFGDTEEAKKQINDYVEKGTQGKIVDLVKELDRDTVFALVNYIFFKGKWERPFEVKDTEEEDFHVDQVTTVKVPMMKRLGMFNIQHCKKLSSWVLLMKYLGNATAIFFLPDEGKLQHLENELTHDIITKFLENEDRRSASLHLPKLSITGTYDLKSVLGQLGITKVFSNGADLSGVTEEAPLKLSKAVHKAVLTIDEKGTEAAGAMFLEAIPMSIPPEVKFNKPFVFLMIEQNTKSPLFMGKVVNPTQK

Row | Binder | koff [1] [s⁻¹] | Kd [2] [nM] | koff [3] [s⁻¹] | koff [4] [s⁻¹] | Kd [5] [nM] | Kd [6] [nM]
1 | Tissue plasminogen activator (enzyme) SYQVICRDEKTQMIYQQHQSWLRPVLRSNRVEYCWCNSGRAQCHSVPVKSCSEPRCFNGGTCQQALYFSDFVCQCPEGFAGKCCEIDTRATCYEDQGISYRGTWSTAESGAECTNWNSSALAQKPYSGRRPDAIRLGLGNHNYCRNPDRDSKPWCYVFKAGKYSSEFCSTPACSEGNSDCYFGNGSAYRGTHSLTESGASCLPWNSMILIGKVYTAQNPSAQALGLGKHNYCRNPDGDAKPWCHVLKNRRLTWEYCDVPSCSTCGLRQYSQPQFRIKGGLFADIASHPWQAAIFAKHRRSPGERFLCGGILISSCWILSAAHCFQERFPPHHLTVILGRTYRVVPGEEEQKFEVEKYIVHKEFDDDTYDNDIALLQLKSDSSRCAQESSVVRTVCLPPADLQLPDWTECELSGYGKHEALSPFYSERLKEAHVRLYPSSRCTSQHLLNRTVTDNMLCAGDTRSGGPQANLHDACQGDSGGPLVCLNDGRMTLVGIISWGLGCGQKDVPGVYTKVTNYLDWIRDNMRP | 0.00787 | 246 | – | – | – | –
2 | Active recombinant TMPRSS2 (transmembrane serine protease 2) (enzyme) not shown | 0.00253 | 9.5 | 0.00324 | 0.00377 | 17.9 | 20.8
